A word on the EC50: it is the concentration needed to bring the measured effect to its halfway point. A high value points to lower potency in that assay.

Data on four molecules can be found in patent US11419945B2, “Antigen binding proteins” (Glaxo Group Limited, priority 2011, dated 2022).

For experiment [1], the target named is T1, Human commercial BCMA (Homo sapiens, UniProt Q02223).
T1 construct: purchased US Biological B0410
T1 sequence (Q02223 1-184): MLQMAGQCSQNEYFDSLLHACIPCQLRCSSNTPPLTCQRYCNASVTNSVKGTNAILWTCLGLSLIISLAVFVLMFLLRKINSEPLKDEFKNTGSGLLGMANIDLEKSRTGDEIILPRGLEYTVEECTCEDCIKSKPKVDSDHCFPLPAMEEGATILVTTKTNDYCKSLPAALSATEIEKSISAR
In words: BIAcore analysis of J6M0 and J9M0, human commercial BCMA. The class given is binding. As for the experimental part:
Protein A was immobilised on a CMS chip (GE Healthcare, Cat No: BR-1005-30) by primary amine coupling and this surface was then used to capture the antibody molecules. Recombinant human BCMA (US Biological, B0410) was used as analyte at 256 nM, 64 nM, 16 nM, 4 nM and 1 nM. Regeneration of the capture surface was carried out using 50 mM NaOH. All binding curves were double referenced with a buffer injection (i.e. 0 nM) the data was fitted to the using the 1:1 model inherent to T100 evaluation software. The run was carried out at 25° C. and 37° C. for experiment 1 and only 37° C. for experiment 2 using HBS-EP as the running buffer.
In general terms: SPR reads the build-up and loss of mass on a sensor chip optically.

Experiment [2] deals with Cyno in house BCMA. The experiment in a line: ProteOn analysis of CA8 chimeric and humanised constructs, cyno in house BCMA. The class given is binding. The settings on record: Run 2, Cyno in house BCMA, 25° C.
The next experiment deals with T2, Human in house BCMA (Homo sapiens, UniProt Q02223).
T2 construct: CD33 signal peptide (N); TEV site (internal); Fc (C); made in house
In words: ProteOn analysis of CA8 chimeric and humanised constructs, human in house BCMA. It counts as binding. An outline of the steps: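 SPR at 25 °C in HBS-EP: CA8 antibodies captured on Protein A-coated chip, recombinant BCMA injected at 256, 64, 16, 4, 1 nM with buffer double-referencing; NaOH regeneration. Kinetics from 1:1 model fit; run 2 also used commercial human BCMA.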

Experiment [3] concerns the target T1, Human commercial BCMA. The experiment in a line: ProteOn analysis of CA8 chimeric and humanised constructs, commercial human BCMA. It counts as binding. The settings on record: Run 2, commercial human BCMA, 25° C. As for the experimental part: The initial screen of CA8 chimeric and humanised variants was carried out on the ProteOn XPR36 (Biorad). The method was as follows; Protein A was immobilised on a GLC chip (Biorad, Cat No: 176-5011) by primary amine coupling, CA8 variants were then captured on this surface and recombinant human BCMA (in house or commercial US Biological, B0410) materials (run 2 only)) passed over at 256, 64, 16, 4, 1 nM with a 0 nM injection (i.e. buffer alone) used to double reference the binding curves, the buffer used is the HBS-EP buffer. 50 mM NaOH was used to regenerate the capture surface. The data was fitted to the 1:1 model using the analysis software inherent to the ProteOn XPR36. Run 1 corresponds to the first screen of humanised CA8 variants (JO to J5 series) and run 2 to the second screen of humanised CA8 variants (J5 to J9 series). Both runs were carried out at 25° C.

Another experiment has as its system NCI-H929 tumours. The experiment in a line: NCI-H929 murine xenograft. It counts as in vivo, CB.17 SCID mice. On the procedure:
FIG. 19: Effect of dose escalation of J6M0 and drug conjugated J6M0 on the growth and establishment of NCI-H929 cells in CB.17 SCID mice. Calculated tumour volumes of NCI-H929 tumours in CB17 SCID mice following twice weekly intraperitoneal dosing of either 50 or 100 ug J6M0 anti-BCMA or IgG1 isotype control unconjugated, or conjugated to MMAE or MMAF for 2 weeks. Data points represent mean tumour volume of n=5 per group
The cell line selected for xenograft studies was NCI-H929 which is sensitive to ADC and ADCC killing in vitro. Studies were carried out in immunocompromised CB.17 SCID mice which lack T and B cells but maintain NK cells to allow for ADCC activity.
In order to independently analyze both the ADCC and ADC activities of J6M0 we tested J6M0 antibody in the presence and absence of MMAF or MMAE conjugation. By testing the unconjugated J6M0, any anti-tumour effects could be attributed to some combination of ADDC and functional inhibitory activity.
Mice with NCI-H929 tumours that had reached a volume of 200 mm^3 on average were treated with a human IgG1 control or the J6M0 antibody (unconjugated, MMAE or MMAF) twice weekly at a dose of 50 ug or 100 ug, for 2 weeks.

Experiment [4] relates to five multiple myeloma target cell lines. In words: ADCC of afucosylated J6M0 on MM cell lines (panel). The class given is cell-based. Particulars: human PBMC, E:T ratio 50:1, 18 hours. On the procedure: (§1) FIG. 18: ADCC dose response curves of CA8 J6M0 Potelligent against a panel of 5 multiple myeloma lines—Human PBMC were incubated with multiple myeloma target cells in the presence of varying concentrations of CA8 J6M0 potelligent antibody at an E:T ratio of 50:1 for 18 hours. The percentage of target cells remaining in the effector plus target mixture was then measured by FACS using a fluorescently labelled anti-CD138 antibody to detect the target cells and the percent cytotoxicity calculated. Example dose response curves for CA8 J6M0 potelligent against the five multiple myeloma cell lines tested—[…], RPMI8226, JJN-3, OPM-2, and U266. Each data point is from a singlicate value.
(§2) Human PBMC were incubated with multiple myeloma target cells at an E:T ratio of 50:1 in presence of varying concentrations of afucosylated (Potelligent) J6M0 The percentage of target cells remaining in the effector+target cell mixture after 18 hours was measured by FACS using a fluorescently labelled anti-CD138 antibody to detect the target cells and the percent lysis calculated. This is representative of several experiments.

Another experiment has as its system OPM-2. The experiment in a line: ADCC of afucosylated J6M0, OPM-2. It counts as cell-based, human. The settings on record: OPM-2, ADCC, PBMC E:T 50:1, 18 hours; one value per assay/donor (A-K). As for the experimental part:
as §1, §2

A further experiment concerns U266. The experiment in a line: ADCC of afucosylated J6M0, U266. The class given is cell-based, human. Particulars: PBMC E:T 50:1, 18 hours, one value per assay/donor (A-K). As for the experimental part:
as §1, §2

Experiment [5] concerns Europium labelled ARH77-10B5 cells. In words: ADCC potency of conjugated, afucosylated J6M0. It counts as cell-based, human. The settings on record: PBMC: target cell ratio 50:1, up to 10000 ng/ml, 2 hours. As for the experimental part:
FIG. 17: ADCC activity of ADC J6M0 molecules—Figure showing ADCC assay on J6M0 antibodies using ARH77 BCMA expressing target cells. Human PBMC were incubated with europium labelled ARH77 BCMA transfected target cells in the presence of a range of concentrations of J6M0 WT and potelligent BCMA antibodies conjugated to MMAE, MMAF, or unconjugated Europium release was monitored on the Victor 2 1420 multilabel reader.
Afucosylated J6M0 conjugated to MMAE or MMAF was tested in ADCC assays using BCMA transfectants to ensure that its ADCC activity was not compromised by the conjugation. Europium labelled ARH77-10B5 cells were incubated with various J6M0 WT and Potelligent BCMA antibodies at concentrations up to 10000 ng/ml for 30 minutes prior to the addition of PBMCs (PBMC: target cell ratio 50:1). Two hours later an aliquot of cell media was sampled and mixed with enhancement solution. After 30 minutes on a plate shaker, europium release was monitored on the Victor 2 1420 multi-label reader. Datapoints represent means of triplicate values.

Experiment [6] has as its target T3, ARH77-hBCMA 10B5 BCMA expressing transfectant cells (Homo sapiens, UniProt Q02223).
T3 construct: expressed in transfected cells; host or cells: ARH77 (clone 10B5)
T3 sequence (Q02223 1-184): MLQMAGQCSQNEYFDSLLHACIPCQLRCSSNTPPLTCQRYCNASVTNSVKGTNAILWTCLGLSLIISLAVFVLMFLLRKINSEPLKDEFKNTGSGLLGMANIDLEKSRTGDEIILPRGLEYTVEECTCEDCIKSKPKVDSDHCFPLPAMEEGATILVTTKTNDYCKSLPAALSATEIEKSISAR
The experiment in a line: FACS binding of humanised CA8 to BCMA transfected cells. Particulars: varying concentrations, 20 minutes at RT. On the procedure: (§3) ARH77-hBCMA 10B5 BCMA expressing transfectant cells or H929 cells were stained with either chimeric CA8 or humanised variants of CA8 designated J6M0, J6M1, J6M2, J9M0, J9M1, J9M2 at varying concentrations for 20 minutes at RT. Cells were then washed with FACS buffer (PBS+0.5% BSA+0.1% sodium azide) to remove unbound antibody. Cells were incubated with a secondary PE labelled anti-human IgG antibody for 15 minutes at RT and then washed with FACS buffer to remove unbound antibody. Cells were analysed by FACS and mean fluorescence intensity (MFI) values measured to determine binding.

For experiment [7], the target named is T1, Human commercial BCMA. In words: BIAcore analysis J7 to J9 series, human commercial BCMA. Particulars: 37° C. It counts as binding. On the procedure: Protein A was immobilised on a CMS chip (GE Healthcare, Cat No: BR-1005-30) by primary amine coupling and this surface was then used to capture the antibody molecules. Recombinant human BCMA (US Biological, B0410) was used as analyte at 256 nM, 64 nM, 16 nM, 4 nM and 1 nM. Regeneration of the capture surface was carried out using 50 mM NaOH. All binding curves were double referenced with a buffer injection (i.e. 0 nM) and the data was fitted to the using the 1:1 model inherent to T100 evaluation software. The run was carried out at 37° C., using HBS-EP as the running buffer.

Another experiment relates to H929 cells. The experiment in a line: FACS binding of humanised CA8 to H929 cells. On the set-up: species or system human. The settings on record: varying concentrations, 20 minutes at RT. On the procedure:
as §3

The test system of experiment [8] is Cyno in house BCMA. The experiment in a line: BIAcore analysis J7 to J9 series, cyno in house BCMA. The class given is binding. Particulars: 37° C.

Cyno in house BCMA, sequence (as listed by the source): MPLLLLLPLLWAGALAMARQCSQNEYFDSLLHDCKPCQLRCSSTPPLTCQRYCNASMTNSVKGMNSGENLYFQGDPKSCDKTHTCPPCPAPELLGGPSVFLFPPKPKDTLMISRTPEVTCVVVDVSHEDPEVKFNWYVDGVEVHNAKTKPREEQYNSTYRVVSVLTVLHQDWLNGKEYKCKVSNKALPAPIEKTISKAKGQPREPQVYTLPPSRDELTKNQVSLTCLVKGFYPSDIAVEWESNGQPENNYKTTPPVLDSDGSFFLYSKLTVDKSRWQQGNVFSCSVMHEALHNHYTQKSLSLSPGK
T2 sequence (Q02223 with tags, fused parts or gaps limits assumed): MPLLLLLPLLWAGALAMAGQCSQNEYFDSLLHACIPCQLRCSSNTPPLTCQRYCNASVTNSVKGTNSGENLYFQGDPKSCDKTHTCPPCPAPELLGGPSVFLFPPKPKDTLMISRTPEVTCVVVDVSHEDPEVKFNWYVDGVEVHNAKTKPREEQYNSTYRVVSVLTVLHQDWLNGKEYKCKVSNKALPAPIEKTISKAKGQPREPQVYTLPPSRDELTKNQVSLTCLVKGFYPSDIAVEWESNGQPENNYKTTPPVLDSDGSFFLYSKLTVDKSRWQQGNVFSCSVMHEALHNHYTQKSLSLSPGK

With CA8 humanised J6M0, the ka came to 1.01E+06 in the experiment with Human commercial BCMA [1] (25° C., Experiment 1, in M-1s-1 (unit assumed)); 2.12E+06 in the experiment with Human commercial BCMA [1] (37° C., Experiment 1, in M-1s-1 (unit assumed)); 3.78E+06 with Human commercial BCMA [1] (37° C., Experiment 2, in M-1s-1 (unit assumed)); 5.64E+04 in the experiment with Cyno in house BCMA [2] (in M-1s-1 (unit assumed)); 2.40E+05 in the experiment with Human in house BCMA (Run 2, Human in house BCMA, ProteOn, 25° C., in M-1s-1 (unit assumed)); 6.23E+05 with Human commercial BCMA [3] (in M-1s-1 (unit assumed)). The kd with Human commercial BCMA [1] (25° C., Experiment 1, in s-1 (unit assumed)) was determined as 1.22E−04; in the experiment with Human commercial BCMA [1] (37° C., Experiment 1, in s-1 (unit assumed)), 1.48E−03; with Human commercial BCMA [1] (37° C., Experiment 2, in s-1 (unit assumed)), 1.88E−03; at Cyno in house BCMA [2] (in s-1 (unit assumed)) it was 3.18E−04; in the experiment with Human in house BCMA (Run 2, Human in house BCMA, ProteOn, 25° C., in s-1 (unit assumed)), 7.40E−05; with Human commercial BCMA [3] (in s-1 (unit assumed)), 5.37E−05.
J6M0-MMAF: in the experiment on NCI-H929 tumours (50 ug or 100 ug twice weekly for 2 weeks), the “anti-tumour activity compared with unconjugated J6M0 and J6M0-MMAE” value was “increased anti-tumour activity over both unconjugated J6M0 antibody and J6M0-MMAE conjugate”. For the same molecule, the “effect on NCI-H929 tumours” value in the experiment with NCI-H929 tumours (100 ug dose twice weekly for 2 weeks, intraperitoneal, tumours 200 mm^3 at start) was “elimination of tumours”. Further, in the experiment on NCI-H929 tumours (mice maintained for 40 days after the last dose), the recurrence of tumour entry is given as “no recurrence of tumour”.
In the case of “J6M0 Potelligent: humanised CA8 version J6M0 in afucosylated (Potelligent) form”, in experiment [4], the ADCC activity result was “showed ADCC activity against all five multiple myeloma target cell lines tested”. The EC50 in the experiment on OPM-2 is listed as 4.15 ng/mL; with U266, 9.04 ng/mL. Moreover, the “ADCC potency (europium release)” value in [5] is “lower EC50 and higher maximal lysis”.

B1: CA8 humanised J9M2: humanised CA8 anti-BCMA antibody, VH J9 (SEQ ID NO:29) + VL M2 (SEQ ID NO:35) (antibody, V domains shown)
VH: QVQLVQSGAEVKKPGSSVKVSCKGSGYTFTNYWMHWVRQAPGQGLEWIGATYRGHSDTYYNQKFKGRATLTADTSTSTAYMELSSLRSEDTAVYYCTRGAIYDGYDVLDNWGQGTLVTVSS
VL: DIQLTQSPSSLSASVGDRVTITCSASQDISNYLNWYQQKPGKAPELVIYYTSNLHSGVPSRFSGSGSGTDYTLTISSLQPEDFATYYCQQYRKLPWTFGQGTKLEIKR
modifications: Humansed antibody sequence
With B1, the “dose dependent binding to ARH77-hBCMA 10B5 cells by FACS (MFI)” value in experiment [6] was “all antibodies tested apart from J9M2 bound”. In the experiment with Human commercial BCMA [7], the KD result is recorded as “No”. Further, the off rate entry with Human in house BCMA (Run 2, ProteOn, recombinant human BCMA, no affinity values obtained) was “beyond the sensitivity of the assay”. In addition, the “dose dependent binding to H929 cells by FACS (MFI)” value with H929 cells is “all antibodies tested apart from J9M2 bound”. The ka in the experiment on Cyno in house BCMA [8] (in M-1s-1 (unit assumed)) worked out at 4.88E+05. For the same molecule, the kd on Cyno in house BCMA [8] (in s-1 (unit assumed)) is recorded as 2.52E−04.
